Patent US20260069679A1

What was measured:
[1] = biological target: SS-L2-LuS (MERS-CoV EMC/2012 spike stem fused to Aquifex aeolicus lumazine synthase); test: BLI, 1:1 fit
SS-L6-Aferr = test: BLI, 1:1 fit
SS-L6-LuS = test: BLI, 1:1 fit
[2] = biological target: SS\u0394G4Loop-L6-Aferr (MERS-CoV EMC/2012 spike stem fused to human apoferritin); test: BLI, 1:1 fit
[3] = biological target: SS\u0394G4Loop-L6-LuS (MERS-CoV EMC/2012 spike stem fused to Aquifex aeolicus lumazine synthase); test: BLI, 1:1 fit
[4] = biological target: SS-L2-LuS (MERS-CoV EMC/2012 spike stem fused to Aquifex aeolicus lumazine synthase)
[5] = biological target: MERS SS Nanoparticle (NP)
[6] = biological target: MERS SS delG4loop Nanoparticle; test: BLI sensorgrams, six curves without concentration labels, time axis 0-500 s

CC40.8 (antibody)
Kd [1]: 748 pM
kon [1]: 315000 M⁻¹ s⁻¹
Kd (SS-L6-Aferr): 1970 pM
kon (SS-L6-Aferr): 268000 M⁻¹ s⁻¹
Kd (SS-L6-LuS): 1850 pM
kon (SS-L6-LuS): 219000 M⁻¹ s⁻¹
Kd [2]: 2730 pM
kon [2]: 184000 M⁻¹ s⁻¹
Kd [3]: 2280 pM
kon [3]: 218000 M⁻¹ s⁻¹

G4 (antibody)
maximum binding [4]: 1.3 nm
Kd [5]: 1.7 pM
Kd [1]: 1.78 pM
kon [1]: 270000 M⁻¹ s⁻¹
Kd (SS-L6-Aferr): 3.02 pM
kon (SS-L6-Aferr): 155000 M⁻¹ s⁻¹
Kd (SS-L6-LuS): 4.6 pM
kon (SS-L6-LuS): 133000 M⁻¹ s⁻¹
Kd [2]: 2.82 pM
kon [2]: 229000 M⁻¹ s⁻¹
Kd [3]: 3.47 pM
kon [3]: 147000 M⁻¹ s⁻¹
Kd [6]: 3 pM
